PMC10527052, “X-ray Crystallographic Study of Preferred Spacing by the NF-κB p50 Homodimer on κB DNA” (Biomolecules, 2023)

How the values were obtained:
NF-kB p50 RHR homodimer [1] = molecular target: T1, NF-kB p50 RHR homodimer (mouse (murine), UniProt P25799 39-363); test: X-ray crystallography; 12-bp spacing, 2.80 A; 2:1 DNA:p50 dimer; second duplex almost unbound, contributes terminal G; Co-crystal structures only; crystallization conditions not in the material; protein stock in 25 mM Tris-HCl pH 7.4, 50 mM NaCl, 1 mM DTT; settings: protein: recombinant; chain copies: 2; blunt; 2 duplexes per p50 dimer, stacked end-to-end
NF-kB p50 RHR homodimer [2] = molecular target: T1, NF-kB p50 RHR homodimer; test: X-ray crystallography; 11-bp spacing, 2.80 A; Co-crystal structures only; crystallization conditions not in the material; protein stock in 25 mM Tris-HCl pH 7.4, 50 mM NaCl, 1 mM DTT; settings: protein: recombinant; chain copies: 2; blunt
NF-kB p50 RHR homodimer [3] = molecular target: T1, NF-kB p50 RHR homodimer; test: X-ray crystallography; 11-bp spacing, 3.0 A; Co-crystal structures only; crystallization conditions not in the material; protein stock in 25 mM Tris-HCl pH 7.4, 50 mM NaCl, 1 mM DTT; settings: protein: recombinant; chain copies: 2
[4] = molecular target: the molecule itself; test: crystal structure; p50 RHR homodimer co-crystallised with κB DNA (IL-6 17-mer, 2.80 Å; NGAL 10-mer, 2.80 Å; Test 16-mer, 3.0 Å); hanging or sitting drop vapor diffusion; one complex per asymmetric unit

B1: NGAL kB DNA 10-mer (dsDNA)
DNA 1: GGGAATGTCC
DNA 2: GGACATTCCC
binding result (NF-kB p50 RHR homodimer [1]): binds

B2: IL-6 kB DNA 17-mer (dsDNA)
DNA 1: TGTGGGATTTTCCCATG
DNA 2: CATGGGAAAATCCCACA
binding result (NF-kB p50 RHR homodimer [2]): binds

B3: Test kB-like DNA 16-mer (dsDNA)
DNA 1: TCAGGGGAATTCCCCTC
DNA 2: AGAGGGGAATTCCCCTG
binding result (NF-kB p50 RHR homodimer [3]): binds

B4: murine NF-κB p50 subunit Rel homology region (amino acid residues 39–363) (domain or fragment, UniProt P25799 39-363, looked up)
chain: GPYLQILEQPKQRGFRFRYVCEGPSHGGLPGASSEKNKKSYPQVKICNYVGPAKVIVQLVTNGKNIHLHAHSLVGKHCEDGVCTVTAGPKDMVVGFANLGILHVTKKKVFETLEARMTEACIRGYNPGLLVHSDLAYLQAEGGGDRQLTDREKEIIRQAAVQQTKEMDLSVVRLMFTAFLPDSTGSFTRRLEPVVSDAIYDSKAPNASNLKIVRMDRTAGCVTGGEEIYLLCDKVQKDDIQIRFYEEEENGGVWEGFGDFSPTDVHRQFAIVFKTPKYKDVNITKPASVFVQLRRKSDLETSEPKPFLYYPEIKDKEEVQRKRQK
notes: 351-363 disordered in the crystals; murine amino acid numbering; also called p50 RHR; NF-κB p50 homodimer; source: E. coli BL21 (DE3), pET11a, purified (SP Sepharose, Superdex 75 size exclusion)
stoichiometry N [4]: 2
